From a protein production outcome set (Wang et al. 2014)

Test: label from the status in PepcDB records

| Sequence | protein production |
| --- | --- |
| MREAGDAIARLRTLRDAAGRLVASRASLLRRAPVGLVVAAVVIPLVGCDTGPNFWFHKRASACPRPQVAQGVSGQFNQQQQEIRALRQGGFRGDFFAQLELARRYEGQRAVDKNLEDPVEAAVWYAMALANSGGYAPIAAYERRGKESRAVSRFDDCRAFERRSAYGALDRLLSRMSTEEREKVRNRVIYILSTQSADGFRTLARMHDGYFGPFGEPSDNLQAIEAYGKPSQPGAPAALDLFRRNDVDAYLYNYLAVQTGDVSAYVMLKDFERSSPQRASYGSFVETKAKRWIPPYEFYPPESPDSGVPHSDEADLSGEARESALYRIAELPFVHVGESLAYLRVIPTAVLDEKMLSVTEVQTLQSMIGRPNTGRLAPIEKVRAVQYAAVNGSSKAQLVLAVMYSEGVGVPRDYARAYHWYEEAERQGSAEAKYAMSTFFSLGLQGVADQDRAKAVVYQIDGALAGFKPSAWRLQQLLAQVSRPPRAAGERPQPRPIYGADDYRAAPRADDRDPRQDQPGSDRGGRPYNEGNY | failed |
| MREDAARDRMRGFGFHEHVISESIKELLEVYEDQWFLIEDDSYGPLLAICLEKQEEKEKQLAEVQANQLPENHNEEMAEEEQPNQLAVEIHEEEKEQEQDMHIEYGRDQADELSINSEAVNDPSPAAIHLGEASSDYAQSSVRGVENLHCGWLIDEEETDPEEETDPEEKETEPEDPKEKETEPEEDSDGDDDEIIQLTPEPLCEELQELLREVRGQKRRKKEMRWDK | failed |
| MREEHSPVRDGRRSGGLRSLIDPRFLSSFALNDGGSISGRRSSYLKLPPQGRIKLSVVKLNGSLFDVEVAKDCSVAELKRAVEQVFTISPLEGHGMISWSHVWGHFCLCYRDQRLVNDKTSIRYLGLNDGDQLHFVRHLSIDHSPMNKRSKSPSCKRYLELDVSSIVNEIQIQNQNQNGVDDVAEKCYPGAQDELPAAESRLVNLIKGWLPYAGRWGVSRKGPECRSGPSRFSLKHFGGRPKM | failed |
| MREEKIREALNAHWQASAAGDFDAEHDIYDDDAICDYPQSGERILGRMNLQALRSHHPGKPAGFEVRRIQGEGNLWITEYSISYNGRPAYTVSIMEFRNGKVVHETQYFSDPFEAPGWRSQWVQQIG | not failed |
| MRELTSNEMNNVSGGDLASRLEASIVGSVAGFFAGSIWGGTRGGDGGGILGVGSIGQGVGMIYGGIAGAIGGAIGAFVIDKTLTYTYTTGFMNSLFSGTFAK | failed |
| MREMQIMSQPEQSRLDLFIDRMVSQRACLEHAIAQTAGLSGPVYELGLGNGRTYHHLRQHVQGREIYVFERAVASHPDSTPPEAQLILGDIRETLPATLERFGATASLVHADLGGHNREKNDRFARLISPLIEPHLAQGGLMVSSDRMYFEGLEELPLPPGAVVGRCFIYRRG | not failed |
| MRENSTKPPQPHISEPADVAESRFISVAIPTFRRPDTIRRAIDSVLHQDFSNWELIVSDDEGPDGQTWAMLTDYARADPRIRIVENRRGRGQVENTNNVMLACRGSWIKLLHDDDWLAPKALGTFAQVAQQYPSAAFITCATNRVEDDRVKLRSARPGKKHVTVCSSQQTLKDLYLVRTTRSFGIIPSSLLVNSIVVQNGCLMRTYKSITAGVDQLFFIDLARHGDMVMIEDGLIFYDATNHSSVTASTTFDDVDRETIDLKHLTWSLIEDKHELPDPETIAGALQVARLRSRFRHQPWGSTIRHALQIFHPSVTKAVNQDIFARVQAVLRRRLRRTNW | failed |
| MREPMTWRTSPGQTADASRHPAIPSRSPLASRALSFLGALSLLTFAATPVLAESTPTAAPPQFAVESPKAASSLLLSVAHAGKRLVAVGDRGHILLSDDDGKTWTQAKVPTRQLLTSVFFVNERKGWAVGHDAQILVSDDAGSTWARQFEDLGREAPLLDIWFADEQHGLAVGAYGALLETRDGGQHWEDVSERLDNEDQFHLNAIAAVKDNGLLVVGEAGSLFRSKDWGATWEKLEGPYEGSLFGAIGTADAGGVLVYGLRGHLFRSADFGDSWEEIPLKAASGDLEFGLSDGALLADGRIVVVGHGGSVLESTDGGRSFSVFNRPDRLSLAGVSATGDGHLILVGQGGVHLAAANGAALEQQQ | failed |
| MRERRYSSTSPERLAAALFDVAAESGLEGASVREVAKRAGVSIGAVQHHFSTKDEMFAFALRTLVDKLLARLSEVERGGDPARALFAAMSQLLPLDEARSREAHVMAAFAVRAATSPSLAEIRRKTLFTIRTGLSAVLIGIGTPEAETRAALLLATVDGLALDAIGSPALYPPEYLEHALDIQIGMILQGADVVPSSSIELAS | not failed |
| MRETFEIGEIVTGIYKTGKYIGEVTNSRPGSYVVKVLAVLKHPVQGDLHNVKQANVPFFHERRALAFREQTNIPEQMVKKYEGEIPDYTESLKLALETQMNSFSEDDSPFAERSLETLQQLKKDYKL | not failed |
| MRETLERLLASETFGRSERARKLIRYLVEREQAGEADRLKGFSIAMDVFGKDGDFDPSTDAVVRVQAGRLRELLQQYFANEGIAEPVRIAIPRGGYVPAYELNAIRLPEVAKPAEQAAAAAAPAEHPSAAEDAVAPDASLAPAAAPVPSVARHLRFFWMAIAVVIAMLGVLILRQGSGALLAGGHLPATFESAGLTSSIAPSPVSEALPLVYIAVKASGADAGRIAASLRAGLSGFDTIDFIGRDTVDKTDPVNNPTSFIFDILPGPNTGDITIELQSMASGRVLLSRNLTPADSTPTAIEDRVADMLSSALPASGTIYNYIEQTGTPNGLTECLLLNDKYYLDQNARTHEAAYRCLETLANSGAKSSLVYSELASLQVEAVSDHYVYPPNATIEKAVEFAHRGVQMGPTSPYAHRAYGYVSSRLGNTDEAIRWMRKAYELNPYDLGMAAAYGYGLIFAGRYAEGTPILTHAAETFSGHSTWWDYGLFVGDFMLGDMNKAIAASMALRTTATKSHYLAARLIGAKAAGQDSLVTTLLNELNTKFPKFAADPRSTFVERKYPADLTDRLVQALRAAGLGSAS | failed |
| MRFAVLGSGSQGNGTLIASGDTFILVDCGFSLRETERRLALLGVSAAQLSAVLVTHEHADHVHGVGLLSRRYNVPVYLSQGTLRGMRKPVEVAGFLACGQSLHIGSLEVTAARVEHDAYEPLQYVVSDGKRRFGMLTDLGSYDALLLERYQGLDALLIEANHCRDLLARGHYPAFLKQRVGGMQGHLNNHQAARLVHELGWNNLQHLVLAHLSSKNNLPHLARQCFVDTLGCDPDWLQVANQEHGLDWREIALEHHHHHH | not failed |
| MRFCIMKKAVVLLSGGLDSTTCLALAKSQGFACYALSFSYGQRHSAELCAATRIAKHMGAADHKIVTLDIALFGGSALTDASIEVPEFKESPEIPVTYVPARNTIFLAMALGYAESIGARDIFIGASSVDYSHYPDCRPEFIESFQSLANLATKAGIEGDRFTINAPLQYLSKVQTIQLGTELGVDYGLTVSCYQANEAGEACGQCDSCTFRKRGFKSAGVDDPTRYQKCVHI | failed |
| MRFDGAAGLAQRMPMLGRVVQAAPLALLLGCCLILTLPASGRTLFYILCSLSLLFLPLAMFQRLEAKPKALNLLLSFALLIFIGFRAAWLWYFPAPTDAGLFPVAFAYQLSNKIWLSALPLLLFPLWSPFRERLSPAGATLALVSASALLSMITLKAWYDAHGVRVGLGSLYATGAAYLLSAIHFFALLLFHPFRLKKWQWLGLCLLIALQFMSIVATGTRAALLVYLFVLGCALLWRFGLHQSWRTYAIAALLSVATLWLSWAAVGSRVKQAQADLIAYSQGNADTSLGIRFSLWDAGVHAVREQPWGQSIQARDVLFHQLVKDGALNKAALIMRDVHLHNEWLEILSLQGLPGALSWLIFLLGFGVYGWKRGGFFRRFALFYIGFWLVFGLSDVLLLSPQIAMFGAMFAALGLYLAPIFDARDERRL | failed |
| MRFKAELMNAPEMRRALYRIAHEIVEANKGTEGLALVGIHTRGIPLAHRIARFIAEFEGKEVPVGVLDITLYRDDLTEIGYRPQVRETRIPFDLTGKAIVLVDDVLYTGRTARAALDALIDLGRPRRIYLAVLVDRGHRELPIRADFVGKNVPTSRSEVVKVKVEEVDGEDRVELWEREGA | not failed |
| MRFKAIFVRVTKELLRDKRTLALMLVAPVLVLTLMYFIFDTNNDVNLEVGVDESVPNKIVNALPSDKVKIKEYDSPSSIKKTIVNSDLDAYIEKKGDKLDVTYKNENPSNTGTTKQLLGSAIQKNKLQDMAKVINKIPSNIKQGNSAQGEQITLDNHYLYGNSDSTFFDKMFPILIGFFVFFFVFLISGIALLRERTKGTLERLLATSVKRSEIVFGYLAGYGMFAVLQTLIIVFYAIYLLKIDVAGSIWWVLLINILIALSALAMGIFVSTFANSEFQMVQFIPLVVIPQVFFSGIIPLDNVADWVSSIGYIFPLRYAGDALTNIMIKGEGFNNIWFDLSILLVFIIGFTVLNIIGLKRYRKV | not failed |
| MRFKFLRGKLNHPIKCVCDNLSMDNQIMSTELYSQILEVIALVPFGKVATYGQIARLAGLPKHARLVGYTLKNIDQASDIPWHRIINAQGKVSTYHLNQIGENIQLNKLRDEGIVVLNGKINLKKYQWLVSQS | failed |
| MRFLLMRSLLVHPCGGSIINVRSTTTSAQYVASRSRDPVFEKLMDKYKNLLKVIAIQDLTLANPTADPPSLSIEFLSRLSQKLHLNRGAASFLRKYPHIFHVLYDPVKAEPFCRLTDVAMEISRQEALAITATLSLVVDRLVRLLSMSISKSIPLRAVFKVWRELGLPDDFEDSVISKNPHLFKLSDGHESNTHILELVQEEEKRLEFEAAVEKWRVVECSKEDCSVDRTEIQFSFKHSYPPGMRLSKTFKAKVKEWQRLPYVGPYEDMVGKKKSRSGVMGIEKRAVAIAHEFLNLTVEKMVEVEKISHFRKCFGIDLNIRDLFLDHPGMFYVSTKGKRHTVFLREAYERGRLIDPNPVYDARRKLLDLVLLGRHAALSESGNTSMSEQE | failed |
| MRFVLRILKALALLLVLLVITAAGWLFIRPPELLRVGDGYAAKIVCSNVFIAGREAEDVLHDDVQAPGNPLLRLLRVSVDRDNDRVTARFMGLFAPSYALYRGAFGCTSVPDGNFEAAAKAAPFDPPAKMQANDALWPEGEGTGNPADGKIAALLSDAGVAGPAMRAIVVVRNGRIVTEAYGPGFSAKTPLIGWSMTKTVNATILGRLMLGGKISFDDDNLLAQWKNDARAKIKVSDLLGMESGLAFNENYGDVADVTRMLYLDPDMVSLPAGAPMEAAPGQRFRYSSGTAVLLSRIWMDRVGNAQAAFSYPHDALFAPLGMTSAVFELDARGTFAGSSYLYATAHDWARFGQFLLQDGVWNGQRLLPEGFVGAMRTPTAASNGRYSQGQAWLSPGRGSSAGAGLPEDTFWLTGHDGQSVAIVPSANLVVVRLGLTPSRLGYQPQTLLKAILAALPQSGAQQQAGSQRQAQPQP | failed |
| MRFWGKFFGFVIGFMFGRFFGALLGLWLGHLYDKRPGGGASFSQILGQAKNRQGIFFNTTFAVMGHVAKASGRVTETDIRIATLLMDQMRLTGDARKEAQQAFREGKEPDFDLCSSLQAFRAVTQGRQELVQMFIEIQIQTALSDGELDAAEHAILMTVAQELGYGRQQLDELLKRWQAEFRFHQTSSGNKTSITDAYHLLGITAEATDQEVKRAYRKLMNEHHPDKLVAKGLPPEMMEIANRKAQDIQAAYDRVKSERGMR | failed |
| MRGADGRVTDADYRELRGATETPREAVVVGLAGEVGLTSAEIPRVRPCDVAPHDHDGVTHYFLAVPGADGGSDRDAYLPPAVERDIRRRADAAGLADDDPLVDVSARRVQTLVNAVAGRTDTAGLDGVAAQDLRSFFARRLLTGAGVDPRVVAAVGGWSRLASLDQYAAVDAVDRDAIARAFDGTTRAPTDRSEQRAHDRVDEAHSAVLAAGDALSDASTRGAVETAVCEALAASDAYEMAWLARPTTRDDVTVAATAGGDRAIRDDASAAPGATLVQAALDDGTGLFTPAASAAPAVAALREHAAAAGVQAMGVVPVAGPEAAHGVLAVGASTARFSQRERTLITDLGRRVGRAVALAEQRHRLLTDTVLEVAFEVRAGSVFARAAVEQGCDLSLEGVVPGDRQTLVFFVRVAGAPADGVRDWLHDHDGVVSVRVVRDQGGEAVLAVGVAPGADLAMAVVSHGGTIRDLSAGPGGERVVAGVAPETDVRALLDALATAFPGVSLAAKRERARGDETGQRDGASLHDALTDKQAAVLRAAFHAGYFEWPRESTAEDLAADMGVTAPTLHNHLRRAQQKLLATVIDSDGGCDPDTPWPDTRQ | failed |
